Source: the supplement of paper PMC10724198
± gives the standard deviation of the averaged measurements.

tested on: Saccharomyces cerevisiae; assay: protein stability index of tFT-peptide fusion (C-terminal peptide) (PSI (0-1 scale)); higher = more stable (slower turnover); conditions: genetic background: wild type; temperature: 30 C
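Also: PSI is a weighted mean of sequencing reads over stability bins, variants kept only with over 10 reads, mCherry proximal and sfGFP distal, peptide attached via GGGS linker.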

| Sequence | protein stability index |
| --- | --- |
| MRSRWFAREFGK | 0.659 ± 0.07 |
| MSCLSDFPVCFL | 0.726 ± 0.037 |
| MSGVWLWVGGGG | 0.73 ± 0.078 |
| MSVRGGEGVVGE | 0.614 ± 0.025 |
| MSWLGLGLWSVF | 0.808 ± 0.069 |
| MVLTVIHFDCDI | 0.596 ± 0.014 |
| MVTGELVQLLLV | 0.528 ± 0.0048 |
| MWVGLWSVGLCG | 0.717 ± 0.011 |
| MYAWPISPRPLL | 0.738 ± 0.052 |
| MYTNYLYDVAVE | 0.597 ± 0.044 |
| NARPSPRSHSLE | 0.6921 ± 0.0065 |
| NDGLKVLKETSP | 0.675 ± 0.027 |
| NDKPKKKYRKTR | 0.64 ± 0.018 |
| NEVDSRGWTTLA | 0.59 ± 0.021 |
| NFAIYPTLYKYD | 0.667 ± 0.016 |
| NFDNGAGLNRGG | 0.6733 ± 0.0059 |
| NFEVHRCGISLR | 0.681 ± 0.0075 |
| NGDRGQWGMNQR | 0.708 ± 0.028 |
| NGLLRPALVPNY | 0.693 ± 0.012 |
| NGLRILICNTTP | 0.697 ± 0.03 |
| NGPYKAGSIVLI | 0.664 ± 0.027 |
| NGRENVHEWQRG | 0.711 ± 0.018 |
| NGRTSRVMKDRK | 0.6793 ± 0.0035 |
| NGSLRVVSGGFC | 0.63 ± 0.048 |
| NGSPFFFNRLFT | 0.702 ± 0.033 |
| NGTGGGSSLAFG | 0.644 ± 0.019 |

| Sequence | protein stability index |
| --- | --- |
| NGWGKWTKTVCQ | 0.646 ± 0.02 |
| NHIASQASRRGR | 0.637 ± 0.069 |
| NHPCPFSELPQL | 0.758 ± 0.11 |
| NIKHTDKPNHIN | 0.609 ± 0.011 |
| NIKKKINNTVKN | 0.666 ± 0.0073 |
| NIMSSFFLTFHR | 0.719 ± 0.017 |
| NINYETNKQTDR | 0.668 ± 0.022 |
| NISSFKHVLAYK | 0.624 ± 0.06 |
| NKIVKYSKIRYK | 0.678 ± 0.018 |
| NKKKKENTKKRK | 0.721 ± 0.18 |
| NKKKKKKRKRVK | 0.701 ± 0.049 |
| NKKKKKKRNGAP | 0.658 ± 0.028 |
| NKKKNKKKNKKK | 0.676 ± 0.032 |
| NKKKNLRYKHRI | 0.643 ± 0.1 |
| NKNDINRMVQVS | 0.6754 ± 0.0062 |
| NKNNCKLISEKF | 0.721 ± 0.026 |
| NKNNITKKRKKD | 0.749 ± 0.064 |
| NKNRKNQNKGKR | 0.743 ± 0.069 |
| NKQKKKKSTKRN | 0.704 ± 0.029 |
| NKVISETKKLDN | 0.64983 ± 0.00019 |
| NLAGLVREYSGY | 0.684 ± 0.011 |
| NLGRGYLVFRGM | 0.709 ± 0.062 |
| NLLPFLGPLPRS | 0.781 ± 0.067 |
| NLQKTRNRRTVE | 0.643 ± 0.011 |
| NNANDKKNKRKK | 0.664 ± 0.044 |
| NNEETIKQKNLQ | 0.702 ± 0.025 |

| Sequence | protein stability index |
| --- | --- |
| NNRVVRGRKWGG | 0.682 ± 0.015 |
| NPFLHQSMGQLT | 0.724 ± 0.078 |
| NPGLGLSCPSPP | 0.701 ± 0.043 |
| NQERYKKIRSKQ | 0.714 ± 0.054 |
| NRAVTRKRKEEK | 0.664 ± 0.03 |
| NRGRIRARVNEA | 0.708 ± 0.07 |
| NRGTRQIIIKKK | 0.653 ± 0.038 |
| NRLPGNLKKKDN | 0.687 ± 0.019 |
| NRLRNAGEPTND | 0.782 ± 0.069 |
| NRYKINHRIKCK | 0.576 ± 0.032 |
| NRYRILDKLRRK | 0.6618 ± 0.0026 |
| NSHRYDSNIPDS | 0.685 ± 0.057 |
| NSLGRRRSYPTL | 0.839 ± 0.039 |
| NSLLSFLPDPFH | 0.749 ± 0.0096 |
| NSRASHPTNQII | 0.789 ± 0.054 |
| NSSKHAWAWPVP | 0.68 ± 0.029 |
| NSYVGSSTYVIV | 0.692 ± 0.033 |
| NTNNKKNSKHSN | 0.661 ± 0.02 |
| NTQPSNRTQRKY | 0.669 ± 0.1 |
| NTTQKKKGGRKA | 0.747 ± 0.15 |
| NVIGGGRSAGLV | 0.609 ± 0.053 |
| NVKIDNKQRKNK | 0.746 ± 0.019 |
| NVNAVAVILGAC | 0.562 ± 0.0061 |
| NVRKWSREDQTG | 0.6679 ± 0.00079 |
| NWARLGVRMGAA | 0.66 ± 0.013 |
| NWKNENGRELEE | 0.7 ± 0.029 |

| Sequence | protein stability index |
| --- | --- |
| NYLPLCCSMLAG | 0.588 ± 0.015 |
| PAAIARNPLPHR | 0.605 ± 0.075 |
| PAALPHTPSAPY | 0.666 ± 0.04 |
| PAASHPPRWPRR | 0.75 ± 0.049 |
| PACFESCGLWGF | 0.75 ± 0.039 |
| PACSFPPPPFSA | 0.703 ± 0.1 |
| PACSPLLAARVT | 0.711 ± 0.061 |
| PADAPPPTRPEA | 0.724 ± 0.032 |
| PAFVPPFTPATP | 0.76 ± 0.033 |
| PAGLITRSWNLV | 0.565 ± 0.028 |
| PALRTTRCLPLP | 0.703 ± 0.019 |
| PAPCPLFVPSPT | 0.655 ± 0.012 |
| PAPLLPLSPPRP | 0.709 ± 0.042 |
| PAPLPADTFVEC | 0.668 ± 0.065 |
| PAPLPPRPTSLP | 0.711 ± 0.011 |
| PAPPPPLLPRSL | 0.727 ± 0.011 |
| PAPPPPPPPPLH | 0.701 ± 0.083 |
| PAPPPPPTDTPP | 0.623 ± 0.0095 |
| PAPPPVLDTPLP | 0.6018 ± 0.0057 |
| PAPRPLSPPPTF | 0.699 ± 0.0091 |
| PARCRPSSPAPL | 0.726 ± 0.016 |
| PARLLIEFPSYS | 0.684 ± 0.021 |
| PARPIPFPQPCY | 0.538 ± 0.032 |
